Source: publication PMC8406262
One block for each substance: values may come before it.

Assays:
[1] = target: BonA-C45, 45-aa C-terminally truncated BonA (Acinetobacter baumannii); assay: SEC-MALS; 100 μl at 1 to 5 mg/ml on Superdex 200 10/300 GL, 20 mM Tris-200 mM NaCl pH 7.9
[2] = target: BonA, endogenous in A. baumannii ATCC 19606 membranes (Acinetobacter baumannii ATCC 19606 (endogenous)); assay: native gel or EMSA; 5 to 16% blue-native PAGE of 50 μg total membranes solubilized in detergent, Western blot with anti-BonA antiserum
[3] = target: BonA, full-length soluble recombinant protein (mature, lacking its signal sequence) (Acinetobacter baumannii); assay: SEC-MALS; 100 μl at 1 to 5 mg/ml on Superdex 200 10/300 GL, 20 mM Tris-200 mM NaCl pH 7.9
[4] = target: BonA, full-length soluble recombinant protein (mature, lacking its signal sequence) (Acinetobacter baumannii); assay: AUC; sedimentation velocity, 0.25 to 2 mg/ml, 40,000 rpm, 20°C, 50 mM Tris-200 mM NaCl pH 7.9

stoichiometry N [1]: 10
Substance: BonA-C45, 45-aa C-terminally truncated BonA (domain or fragment)

stoichiometry N [2]: 2
Substance: BonA, endogenous in A. baumannii ATCC 19606 membranes (natural protein)

stoichiometry N [3]: 10
stoichiometry N [4]: 10
Substance: BonA, full-length soluble recombinant protein (mature, lacking its signal sequence) (natural protein)
